Assay results: article PMC6776472 (Biochemistry, 2018)
Blank lines part the entries; values can stand above or below the binder they belong to. No end group written: not given here.

Legend:
JNK1 = JNK1 (UniProt P45983 1-427); assay: ITC
ERK2 = ERK2 (UniProt P28482 1-360); assay: fluorescence polarisation
[1] = target: p38α (unphosphorylated, recombinant) (UniProt Q16539 1-360); assay: fluorescence polarisation
Chain of p38α (unphosphorylated, recombinant) (Q16539 whole entry): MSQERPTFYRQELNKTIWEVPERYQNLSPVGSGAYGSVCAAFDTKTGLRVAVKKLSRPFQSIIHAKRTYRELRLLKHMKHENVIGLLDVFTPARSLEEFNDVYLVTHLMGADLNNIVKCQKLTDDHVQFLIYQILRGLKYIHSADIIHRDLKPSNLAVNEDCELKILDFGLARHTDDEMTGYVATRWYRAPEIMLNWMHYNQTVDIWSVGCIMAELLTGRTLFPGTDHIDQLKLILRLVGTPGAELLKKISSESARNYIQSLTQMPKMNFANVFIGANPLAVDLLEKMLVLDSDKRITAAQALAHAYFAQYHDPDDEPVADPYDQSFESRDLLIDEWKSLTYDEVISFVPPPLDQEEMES

Chain of ERK2 (P28482 whole entry): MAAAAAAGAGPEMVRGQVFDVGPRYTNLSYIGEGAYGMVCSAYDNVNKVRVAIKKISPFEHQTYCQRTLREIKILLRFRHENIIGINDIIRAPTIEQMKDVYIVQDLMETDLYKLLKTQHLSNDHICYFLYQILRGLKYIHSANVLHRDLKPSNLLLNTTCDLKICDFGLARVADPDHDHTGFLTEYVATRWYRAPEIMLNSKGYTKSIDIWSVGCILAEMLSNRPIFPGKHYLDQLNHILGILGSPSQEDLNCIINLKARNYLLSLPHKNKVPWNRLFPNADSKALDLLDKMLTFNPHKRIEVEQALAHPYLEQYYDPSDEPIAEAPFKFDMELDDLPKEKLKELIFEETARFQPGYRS
Chain of JNK1 (P45983 whole entry): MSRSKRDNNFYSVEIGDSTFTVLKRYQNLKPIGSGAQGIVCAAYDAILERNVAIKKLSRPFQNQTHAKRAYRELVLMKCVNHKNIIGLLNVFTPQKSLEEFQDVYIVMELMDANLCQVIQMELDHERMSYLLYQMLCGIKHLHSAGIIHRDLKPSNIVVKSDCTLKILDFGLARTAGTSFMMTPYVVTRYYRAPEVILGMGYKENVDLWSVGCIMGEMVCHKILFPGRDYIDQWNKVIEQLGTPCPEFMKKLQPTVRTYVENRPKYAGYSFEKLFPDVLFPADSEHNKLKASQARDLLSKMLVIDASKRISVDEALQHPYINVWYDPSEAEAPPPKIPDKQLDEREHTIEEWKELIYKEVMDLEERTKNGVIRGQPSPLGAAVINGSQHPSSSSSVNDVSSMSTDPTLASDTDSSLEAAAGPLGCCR

Kd (JNK1): > 100 µM
B1: pepMKK6mb (designed binder)
chain: RDLEVVAATPTSLLISWDAPAVTVRYYRITYGETGGNSPVQEFTVPGSKSTATISGLKPGVDYTITVYAVTGRPGLKIPSKPISINYRTEI

binding result (ERK2): binds
Kd [1]: 3.9 µM
B2: MKK6-derived 12-residue peptide, TAMRA-labeled (peptide)
peptide: {TAMRA}-GKKRNPGLKIPK
